Assay [1] addresses GAL4-DBD/SRC1-RID fusion protein (human coactivator SRC-1, receptor interaction domain, amino acids 583–783) (UniProt Q15788). Kind of assay: mammalian two-hybrid assay. The following applies: COS7 cells; pM-SRC-1 (black bars); no ligand; n = 9; empty pVP16-AD with pM-SRC-1 est. 0.57 (red line); parent: est. 0.49; read off a plot.
In assay [2] the target is GAL4-DBD/PGC-1α-RID fusion protein (human PGC-1α, receptor interaction domain, amino acids 88-213) (UniProt Q9UBK2). Kind of assay: mammalian two-hybrid assay. The following applies: COS7 cells; pM-PGC1a (black bars); no ligand; n = 9; empty pVP16-AD with pM-PGC1a est. 3.3 (red line); parent: est. 3.6; read off a plot.
GAL4-DBD/PGC-1α-RID fusion protein (human PGC-1α, receptor interaction domain, amino acids 88-213), sequence (Q9UBK2 88-213): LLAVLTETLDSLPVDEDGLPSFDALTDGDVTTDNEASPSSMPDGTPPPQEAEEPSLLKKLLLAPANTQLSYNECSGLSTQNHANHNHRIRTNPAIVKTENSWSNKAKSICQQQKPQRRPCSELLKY
The target in assay [3] is GAL4-DBD/RXRα-LBD fusion protein (human retinoid X receptor α, amino acids 226–462) (UniProt P19793). The assay can be described thus: mammalian two-hybrid assay. The note with it: COS7 cells; GAL4-dependent pGL3G5 reporter; no ligand; n = 6; parent: est. 40; read off a plot.
GAL4-DBD/RXRα-LBD fusion protein (human retinoid X receptor α, amino acids 226–462), sequence (P19793 226-462): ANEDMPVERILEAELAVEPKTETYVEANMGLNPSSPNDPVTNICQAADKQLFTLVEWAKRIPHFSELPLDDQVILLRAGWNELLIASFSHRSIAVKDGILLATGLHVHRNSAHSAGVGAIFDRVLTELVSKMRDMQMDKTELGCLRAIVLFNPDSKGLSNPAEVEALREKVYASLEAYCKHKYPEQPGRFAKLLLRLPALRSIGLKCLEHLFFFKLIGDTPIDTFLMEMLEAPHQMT
The target in assay [4] is GST-tagged SRC-1 RID protein (recombinant human SRC-1, amino acids 583–783) (UniProt Q15788). The assay can be described thus: CARLA. The following applies: n = 3, read off a plot; for other: fold induction (fold over DMSO only (=1)): 100 µM pregnanedione (log M = -4.0), parent: est. 74; for response: absence of ligand (DMSO only), parent: est. 0.10.
GST-tagged SRC-1 RID protein (recombinant human SRC-1, amino acids 583–783), sequence (Q15788 583-783): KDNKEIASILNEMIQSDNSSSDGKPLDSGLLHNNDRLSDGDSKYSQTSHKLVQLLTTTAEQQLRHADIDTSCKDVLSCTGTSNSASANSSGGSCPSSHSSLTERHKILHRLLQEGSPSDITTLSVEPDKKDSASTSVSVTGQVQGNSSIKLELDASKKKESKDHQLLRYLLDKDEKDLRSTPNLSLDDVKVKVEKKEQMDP
Another assay concerns the target T1, xlCARα (Xenopus laevis, UniProt A0A1L8FCY0).
T1 construct: gene nr1i3.L; full-length; 35S-Met labelled by in vitro transcription/translation (CARLA, with human GST-SRC-1 RID 583-783 as read-out) or expressed in HepG2 cells; LBD residues 145-423
T1 sequence (A0A1L8FCY0 19-441): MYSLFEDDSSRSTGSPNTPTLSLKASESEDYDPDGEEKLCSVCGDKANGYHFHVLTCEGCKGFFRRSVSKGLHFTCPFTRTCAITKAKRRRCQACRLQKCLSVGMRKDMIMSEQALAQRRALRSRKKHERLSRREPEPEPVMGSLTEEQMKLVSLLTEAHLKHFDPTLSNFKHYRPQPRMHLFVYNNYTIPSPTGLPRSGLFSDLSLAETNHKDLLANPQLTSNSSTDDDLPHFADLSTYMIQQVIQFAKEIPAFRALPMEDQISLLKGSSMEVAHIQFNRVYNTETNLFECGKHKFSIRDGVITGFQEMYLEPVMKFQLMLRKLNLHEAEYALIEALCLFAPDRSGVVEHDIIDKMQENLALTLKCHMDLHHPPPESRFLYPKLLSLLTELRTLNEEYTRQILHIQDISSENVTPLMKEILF
Kind of assay: CARLA: ligand-dependent pull-down of […]-labelled receptor by GST-SRC-1 RID. The following applies: pH 8.0, 4 °C overnight; agonist; indirect coactivator-dependent binding assay.

The results in this text go back to publication PMC4010427, “Structural and Functional Similarity of Amphibian Constitutive Androstane Receptor with Mammalian Pregnane X Receptor” (PLoS ONE, 2014).

GAL4-DBD/SRC1-RID fusion protein (human coactivator SRC-1, receptor interaction domain, amino acids 583–783), sequence (Q15788 583-783): as the sequence (Q15788 583-783) above

As for “VP16-AD/xlCARα-LBD fusion protein, wild type (Xenopus laevis constitutive androstane receptor α, amino acids 145–423) Tyr311Phe”, the response in assay [1] was determined as 0.61 rel pM/pVP16; in assay [2], 4.2 rel pM/pVP16. In addition, in assay [3], the response (fold over empty vector pVP16-AD (=1)) is 98.

With “VP16-AD/xlCARα-LBD fusion protein, wild type (Xenopus laevis constitutive androstane receptor α, amino acids 145–423) His295Leu”, the response in assay [1] worked out at 0.45 rel pM/pVP16; in assay [2], 2.8 rel pM/pVP16. The response (fold over empty vector pVP16-AD (=1)) in assay [3] was found to be 47.

In the case of “VP16-AD/xlCARα-LBD fusion protein, wild type (Xenopus laevis constitutive androstane receptor α, amino acids 145–423) Met272Val”, the values for the response in assay [1] and in assay [2] were 0.71 rel pM/pVP16 and 5.5 rel pM/pVP16, respectively. Besides, the response (fold over empty vector pVP16-AD (=1)) in assay [3] came out at 55.

Take “full-length Xenopus laevis CARα, wild type, 35S-labelled Val315Ile”: in assay [4], the other: fold induction (fold over DMSO only (=1)) was found to be 10 and the response is 0.09 % of input.

Turning to “VP16-AD/xlCARα-LBD fusion protein, wild type (Xenopus laevis constitutive androstane receptor α, amino acids 145–423) Val315Ile”, the response in assay [1] was found to be 0.38 rel pM/pVP16; in assay [2], 2.8 rel pM/pVP16. The response (fold over empty vector pVP16-AD (=1)) in assay [3] amounted to 41.

As for `CC(=O)[C@H]1CC[C@H]2[C@@H]3CC[C@@H]4CC(=O)CC[C@]4(C)[C@H]3CC[C@]12C` [5β-pregnane-3,20-dione], the “fold induction of SRC-1 interaction” value on xlCARα is on record as “suggests that xlCARα binds pregnanedione with higher affinity than hsCAR”.

Take “VP16-AD/xlCARα-LBD fusion protein, wild type (Xenopus laevis constitutive androstane receptor α, amino acids 145–423) Met316Phe”: the response in assay [1] came to 0.8 rel pM/pVP16; in assay [2], 5 rel pM/pVP16. The response (fold over empty vector pVP16-AD (=1)) in assay [3] was determined as 56.

“full-length Xenopus laevis CARα, wild type, 35S-labelled Leu237Ile”: in assay [4], the other: fold induction (fold over DMSO only (=1)) was 28 and the response was 0.05 % of input.

Consider “full-length Xenopus laevis CARα, wild type, 35S-labelled Tyr311Phe”, for which the response in assay [4] was 0.06 % of input.

In the case of “full-length Xenopus laevis CARα, wild type, 35S-labelled Met272Val”, in assay [4], the other: fold induction (fold over DMSO only (=1)) worked out at 16 and the response is 0.17 % of input.

Take “full-length Xenopus laevis CARα, wild type, 35S-labelled His295Leu”: in assay [4], the response is 0.11 % of input.

Consider “full-length Xenopus laevis CARα, wild type, 35S-labelled Phe297Tyr”, for which the response in assay [4] was 0.11 % of input.

Turning to “VP16-AD/xlCARα-LBD fusion protein, wild type (Xenopus laevis constitutive androstane receptor α, amino acids 145–423) Met272Val; Met316Phe”, the values for the response in assay [1] and in assay [2] were 0.77 rel pM/pVP16 and 5.5 rel pM/pVP16, respectively. The response (fold over empty vector pVP16-AD (=1)) in assay [3] came out at 59.

Take “VP16-AD/xlCARα-LBD fusion protein, wild type (Xenopus laevis constitutive androstane receptor α, amino acids 145–423) Thr305Val”: the values for the response in assay [1] and in assay [2] were 0.99 rel pM/pVP16 and 5.7 rel pM/pVP16, respectively. In assay [3], the response (fold over empty vector pVP16-AD (=1)) is 110.

Regarding “full-length Xenopus laevis CARα, wild type, 35S-labelled Phe279Leu”, in assay [4], the other: fold induction (fold over DMSO only (=1)) turned out to be 2 and the response is 0.05 % of input.

As for “full-length Xenopus laevis CARα, wild type, 35S-labelled Ser238Asn”, in assay [4], the response is 0.11 % of input.
